Experimental data reported in the DeepSol protein solubility set.

assay: soluble on expression in E. coli; label from the status in PepcDB or PDB records

Sequence	soluble on expression in E. coli
MAGISIGVGSTDYTDLVNKMVNLEGAAKTNQLATLEKTTTTRLTALGQFKSAISAFQTALTALNSNAVFMARTAKSSNEDILKASATQSAVAGTYQIQVNSLATSSKIALQAIADPANAKFNSGTLNISVGDTKLPAITVDSSNNTLAGMRDAINQAGKEAGVSATIITDNSGSRLVLSSTKTGDGKDIKVEVSDDGSGGNTSLSQLAFDPATAPKLSDGAAAGYVTKAANGEITVDGLKRSIASNSVSDVIDGVSFDVKAVTEAGKPITLTVSRDDAGVKDNVKKFVEAYNTLTKFINEQTVVTKVGEDKNPVTGALLGDASVRALVNTMRSELIASNENGSVRNLAALGITTTKDGTLEIDEKKLDKAISADFEGVASYFTGDTGLAKRLGDKMKPYTDAQGILDQRTTTLQKTLSNVDTQKADLAKRLAALQEKLTTQFNLLSAMQDEMTKRQKSITDNLASLPYGSGKKT	not soluble
MNLNFSLLDEPIPLRGGTILVLEDVCVFSKIVQYCYQYEEDSELKFFDHKMKTIKESEIMLVTDILGFDVNSSTILKLIHADLESQFNEKPEVKSMIDKLVATITELIVFECLENELDLEYDEITILELIKSLGVKVETQSDTIFEKCLEILQIFKYLTKKKLLIFVNSGAFLTKDEVASLQEYISLTNLTVLFLEPRELYDFPQYILDEDYFLITKNMV	not soluble
MNNNDIIRRLRYTFDFNDDKMIQLFALADQQVTRAEISNWMKKDDDPDFKELYDKELAVFLNGFIIDKRGKKDGQTPVAEKSLNNNIIFRKLKIALNLQDDDILDILELADMRFGKHELSALFRNPDQSQFRPCKDQVLRNFIHGLQLKYRKE	not soluble
MYEAIGHRVEDGVAEITIKLPRHRNALSVKAMQEVTDALNRAEEDDSVGAVMITGAEDAFCAGFYLREIPLDKGVAGVRDHFRIAALWWHQMIHKIIRVKRPVLAAINGVAAGGGLGISLASDMAICADSAKFVCAWHTIGIGNDTATSYSLARIVGMRRAMELMLTNRTLYPEEAKDWGLVSRVYPKDEFREVAWKVARELAAAPTHLQVMAKERFHAGWMQPVEECTEFEIQNVIASVTHPHFMPCLTRFLDGHRADRPQVELPAGV	soluble
MEVQFKNTRKGYYLNSERIELHKGDVVAVEANPGHDIGTVTLTGKLVKLQMRKHRYNTNNGEPFKIYRIAKQGDLDKYCEAKAREYDTMIQSRQISAELNLDMKIGDVEYQGDGNKAIFYYIADERVDFRQLIRVLAETFHIRVEMKQIGARQEAGRIGGIGPCGRQLCCSAWKMNFVSVNTSAARYQDLALNPQKLTGLCAKLKCCLNYEVDAYVEARKKMPSPEIVLETKESAYHYFKADVFRREVSYSTVPNAPVNLTTISARRAFEVISQNKQGFKPVSLEYDDKKQSSGHELSDILTDNSLTRFDDALSRRRRRNGNGNRDFSDREKAGEPHRTPDSIQPTPRVRSSSRMPSREKSPRPEGGDRRENMRERSRGDARFARPYTNEGGSERMEGARRVVGSGRRPPRQSTPRQEDRQGERKEE	not soluble
MNTRQLLSVGIDIGTTTTQVIFSRLELVNRAAVSQVPRYEFIKRDISWQSPVFFTPVDKQGGLKEVELKALILAQYQAAGIAPESVDSGAIIITGESAKTRNARPAVMALSQSLGDFVVASAGPHLESVIAGHGAGAQSLSEQRMCRVLNIDIGGGTSNYALFDAGKVSGTACLNVGGRLLETDAQGRVVYAHQPGQMIIDEVFGSGTDARALAAAQLGQVARRMADLIVEVITGALSPLAQSLMQTGLLPADITPEVITLSGGVGECYRNQPADPFCFSDIGPLLATALHEHPRLREMNVQFPAQTVRATVIGAGAHTLSLSGSTIWLEDVQLPLRNLPVAIPQDDADLVNAWRQALLQLDLDPQTDAYVLALPATLPVRYAALLTVINALTAFVARYPNPHPLLVVAEQDFGKALGMLLRPQLPQLPLAVIDEVVVRAGDYIDIGTPLFGGSVVPVTVKSLAFPS	not soluble
GPGSMTYCPITRKELERYLPNFDPLLDPQIGEWVLVTPERRFAILGPLLQFVQEHAIKPIYPFLDNSEPSSAPVTTFNFCKEDSPKTLGDPSKVFPTLSEVWRRYRRRRFHISGMDEDGIGEEEENDDTILYLNPRALLLTPCAPAVFGGSDFIEGLDREGERVVFVNWKTGETRTDSGVLKPAPIPAWAEDVAEKAAMEWESWKKCVIPPSSTRE	soluble
